The target of experiment [1] is T1, human melanocortin 4 receptor (human, UniProt P32245 1-332). The experiment can be described thus: cell-based or functional assay.
In experiment [2] the target is human melanocortin 1 receptor (human, UniProt Q01726 1-317). In words: cell-based or functional assay.
Experiment [3] addresses T1, human melanocortin 4 receptor. In words: competition with 125-NDP-α-MSH, BHK human MC4R membranes. Summed up: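 Competition binding used membranes from BHK cells stably expressing human MC4R with ¹²⁵I-NDP-α-MSH (apx. […] final), compound at 1 μM–0.001 nM. Incubation was 2 h at 25 °C in HEPES pH 7.0 buffer with CaCl₂, MgSO₄, EGTA, Tween 20 and 0.1% HSA or ovalbumin. Filter-bound radioactivity was fitted by non-linear regression.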

For orientation: Ki means the equilibrium dissociation constant of an inhibitor or competing ligand from its target. A higher Ki goes with a looser hold on the target.

Positions of bridges follow the written chain, without caps; N, C: chain ends. Non-standard residues stand in square brackets, D forms with d. Cit = NC(=O)NCCC[C@H](N)C(=O)O; Api = NC1(C(=O)O)CCNCC1; Aib = CC(C)(N)C(=O)O

T1 sequence (P32245 whole entry): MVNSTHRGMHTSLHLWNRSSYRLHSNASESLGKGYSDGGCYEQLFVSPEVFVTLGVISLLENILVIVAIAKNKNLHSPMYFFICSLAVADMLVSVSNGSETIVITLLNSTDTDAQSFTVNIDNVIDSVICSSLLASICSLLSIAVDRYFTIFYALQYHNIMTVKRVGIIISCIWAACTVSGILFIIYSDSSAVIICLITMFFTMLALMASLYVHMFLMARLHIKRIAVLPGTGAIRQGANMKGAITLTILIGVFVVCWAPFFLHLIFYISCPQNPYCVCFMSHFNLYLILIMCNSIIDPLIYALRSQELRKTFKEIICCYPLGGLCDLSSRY
human melanocortin 1 receptor, sequence (Q01726 whole entry): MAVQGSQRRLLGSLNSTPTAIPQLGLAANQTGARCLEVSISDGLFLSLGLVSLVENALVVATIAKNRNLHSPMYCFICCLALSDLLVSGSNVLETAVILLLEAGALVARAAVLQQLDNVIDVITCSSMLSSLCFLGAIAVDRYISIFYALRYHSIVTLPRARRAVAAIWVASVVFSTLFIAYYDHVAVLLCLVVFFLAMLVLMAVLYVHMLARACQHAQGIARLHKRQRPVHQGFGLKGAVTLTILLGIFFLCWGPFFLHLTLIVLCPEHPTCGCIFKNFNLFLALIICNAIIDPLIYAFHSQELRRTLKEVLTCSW

B1: Chem. 40 (peptide)
peptide: cyclo(C[Aib]H[dF]KWC[Aib]H[dF]KW)
modifications: disulfide 1-7
SMILES: CC1(C)NC(=O)[C@@H]2CSSC[C@H](NC(=O)[C@H](Cc3c[nH]c4ccccc34)NC(=O)[C@H](CCCCN)NC(=O)[C@@H](Cc3ccccc3)NC(=O)[C@H](Cc3c[nH]cn3)NC1=O)C(=O)NC(C)(C)C(=O)N[C@@H](Cc1c[nH]cn1)C(=O)N[C@H](Cc1ccccc1)C(=O)N[C@@H](CCCCN)C(=O)N[C@@H](Cc1c[nH]c3ccccc13)C(=O)N2
notes: also called c[c[Cys-Aib-His-D-Phe-Lys-Trp-Cys]-Aib-His-D-Phe-Lys-Trp]
B1: the “MC4R cAMP EC50” value in experiment [1] came out at 0.29 nM. The “MC1R cAMP EC50” value in experiment [2] stood at 11.1 nM. In experiment [3], affinity was put at a Ki of 0.31 nM.

B2: Chem. 45 (peptide)
peptide: cyclo(CAH[dF][Cit]WCAEEEW)
modifications: disulfide 1-7
SMILES: C[C@@H]1NC(=O)[C@@H]2CSSC[C@H](NC(=O)[C@H](Cc3c[nH]c4ccccc34)NC(=O)[C@H](CCCNC(N)=O)NC(=O)[C@@H](Cc3ccccc3)NC(=O)[C@H](Cc3c[nH]cn3)NC1=O)C(=O)N[C@@H](C)C(=O)N[C@@H](CCC(=O)O)C(=O)N[C@@H](CCC(=O)O)C(=O)N[C@@H](CCC(=O)O)C(=O)N[C@@H](Cc1c[nH]c3ccccc13)C(=O)N2
notes: also called c[c[Cys-Ala-His-D-Phe-Cit-Trp-Cys]-Ala-Glu-Glu-Glu-Trp]
For the molecule B2, the “MC4R cAMP EC50” value in experiment [1] stood at 45.7 nM. For the same molecule, the “MC1R cAMP EC50” value in experiment [2] was over 100 nM. The molecule further had a Ki in experiment [3] of 1000 nM.

B3: Chem. 49 (peptide)
peptide: cyclo(CH[dF]RWCH[dF]RW)
modifications: disulfide 1-6
SMILES: N=C(N)NCCC[C@@H]1NC(=O)[C@@H](Cc2ccccc2)NC(=O)[C@H](Cc2c[nH]cn2)NC(=O)[C@@H]2CSSC[C@H](NC(=O)[C@H](Cc3c[nH]c4ccccc34)NC1=O)C(=O)N[C@@H](Cc1c[nH]cn1)C(=O)N[C@H](Cc1ccccc1)C(=O)N[C@@H](CCCNC(=N)N)C(=O)N[C@@H](Cc1c[nH]c3ccccc13)C(=O)N2
notes: also called c[c[Cys-His-D-Phe-Arg-Trp-Cys]-His-D-Phe-Arg-Trp]
For B3, the “MC4R cAMP EC50” value in experiment [1] was determined as 1.28 nM. Moreover, in experiment [2], the “MC1R cAMP EC50” value is over 5.5 nM. Moreover, in experiment [3], the affinity corresponds to a Ki of 3.92 nM.

B4: Chem. 47 (peptide)
peptide: cyclo(C[Api]H[dF]RWC[Api]H[dF]RW)
modifications: disulfide 1-7
SMILES: N=C(N)NCCC[C@@H]1NC(=O)[C@@H](Cc2ccccc2)NC(=O)[C@H](Cc2c[nH]cn2)NC(=O)C2(CCNCC2)NC(=O)[C@@H]2CSSC[C@H](NC(=O)[C@H](Cc3c[nH]c4ccccc34)NC1=O)C(=O)NC1(CCNCC1)C(=O)N[C@@H](Cc1c[nH]cn1)C(=O)N[C@H](Cc1ccccc1)C(=O)N[C@@H](CCCNC(=N)N)C(=O)N[C@@H](Cc1c[nH]c3ccccc13)C(=O)N2
notes: also called c[c[Cys-ACP-His-D-Phe-Arg-Trp-Cys]-ACP-His-D-Phe-Arg-Trp]
Take B4: the “MC4R cAMP EC50” value in experiment [1] worked out at 0.12 nM. In addition, in experiment [2], the “MC1R cAMP EC50” value came out at 2.79 nM. Further, the Ki in experiment [3] came to 0.72 nM.

B5: Chem. 42 (peptide)
peptide: CAHFXWCAHFXW
modifications: D-Phe 4, 10; AGP 5, 11; disulphide Cys1-Cys7; head-to-tail amide Cys1-Trp12
notes: also called c[c[Cys-Ala-His-D-Phe-AGP-Trp-Cys]-Ala-His-D-Phe-AGP-Trp]
Turning to B5, the “MC4R cAMP EC50” value in experiment [1] was over 1000 nM. In addition, in experiment [2], the “MC1R cAMP EC50” value was over 100 nM. The molecule also yielded a Ki in experiment [3] of 10000 nM.

B6: Chem. 48 (peptide)
peptide: cyclo(CAH[dF][Cit]WCAKKKW)
modifications: disulfide 1-7
SMILES: C[C@@H]1NC(=O)[C@@H]2CSSC[C@H](NC(=O)[C@H](Cc3c[nH]c4ccccc34)NC(=O)[C@H](CCCNC(N)=O)NC(=O)[C@@H](Cc3ccccc3)NC(=O)[C@H](Cc3c[nH]cn3)NC1=O)C(=O)N[C@@H](C)C(=O)N[C@@H](CCCCN)C(=O)N[C@@H](CCCCN)C(=O)N[C@@H](CCCCN)C(=O)N[C@@H](Cc1c[nH]c3ccccc13)C(=O)N2
notes: also called c[c[Cys-Ala-His-D-Phe-Cit-Trp-Cys]-Ala-Lys-Lys-Lys-Trp]
Turning to B6, the “MC4R cAMP EC50” value in experiment [1] was found to be 0.06 nM. Moreover, the “MC1R cAMP EC50” value in experiment [2] is 9.14 nM. Besides, in experiment [3], the affinity corresponds to a Ki of 0.15 nM.

B7: Chem. 39 (peptide)
peptide: cyclo(C[Aib]P[dF]RWC[Aib]P[dF]RW)
modifications: disulfide 1-7
SMILES: CC1(C)NC(=O)[C@@H]2CSSC[C@H](NC(=O)[C@H](Cc3c[nH]c4ccccc34)NC(=O)[C@H](CCCNC(=N)N)NC(=O)[C@@H](Cc3ccccc3)NC(=O)[C@@H]3CCCN3C1=O)C(=O)NC(C)(C)C(=O)N1CCC[C@H]1C(=O)N[C@H](Cc1ccccc1)C(=O)N[C@@H](CCCNC(=N)N)C(=O)N[C@@H](Cc1c[nH]c3ccccc13)C(=O)N2
notes: also called c[c[Cys-Aib-Pro-D-Phe-Arg-Trp-Cys]-Aib-Pro-D-Phe-Arg-Trp]
As to B7, the “MC4R cAMP EC50” value in experiment [1] came out at 1.54 nM. For the same molecule, the “MC1R cAMP EC50” value in experiment [2] was 56.4 nM. The same molecule returned a Ki in experiment [3] of 1.8 nM.

The values above are taken from US20200223889A1 (Novo Nordisk, published 2020).
